# Results from the supplement of paper PMC9112550, “Optimization of the antimicrobial peptide Bac7 by deep mutational scanning” (BMC Biology, 2022).
# System: Escherichia coli TOP10
# Assay: shrunken log2 fold change of peptide-encoding DNA abundance (4.5 h post-induction vs induction); higher = less antimicrobial activity (less host growth inhibition)
# Details: time post-induction: 4.5 h; library: site-saturation at positions 5, 18, 19, 20
# 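Also: peptides expressed intracellularly from a pBAD plasmid library in pooled LB shake-flask culture, induced with 0.3% L-arabinose, DNA abundance read by NGS, three biological replicates, DESeq2 with apeglm shrinkage.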
row,Sequence,shrunken log2 fold change
1,RRIRHRPPRLPRPRPRPYEDPRP,-0.336
2,RRIRHRPPRLPRPRPRPTLLPRP,-0.281
3,RRIRYRPPRLPRPRPRPHAAPRP,-0.211
4,RRIRQRPPRLPRPRPRPKMIPRP,-0.231
5,RRIRSRPPRLPRPRPRPIVFPRP,-0.0485
6,RRIRRRPPRLPRPRPRPMDDPRP,0.211
7,RRIRDRPPRLPRPRPRPWFNPRP,-0.161
8,RRIRSRPPRLPRPRPRPPKDPRP,-0.0903
9,RRIRARPPRLPRPRPRPVPLPRP,0.263
10,RRIRHRPPRLPRPRPRPNRHPRP,-0.281
11,RRIRWRPPRLPRPRPRPNSNPRP,-0.583
12,RRIRGRPPRLPRPRPRPMSHPRP,0.225
13,RRIRSRPPRLPRPRPRPYSEPRP,-0.561
14,RRIRIRPPRLPRPRPRPVIVPRP,-0.214
15,RRIRVRPPRLPRPRPRPRPMPRP,0.445
16,RRIRNRPPRLPRPRPRPQSEPRP,-0.0564
17,RRIRLRPPRLPRPRPRPIVPPRP,0.0358
18,RRIRNRPPRLPRPRPRPTFWPRP,0.323
19,RRIRQRPPRLPRPRPRPDTVPRP,-0.171
20,RRIRHRPPRLPRPRPRPNQVPRP,0.0339
21,RRIRVRPPRLPRPRPRPVMIPRP,-0.183
22,RRIRCRPPRLPRPRPRPINMPRP,-1.09
23,RRIRNRPPRLPRPRPRPQMIPRP,-0.0608
24,RRIRPRPPRLPRPRPRPAVEPRP,0.014
25,RRIRMRPPRLPRPRPRPNKKPRP,-0.0238

row,Sequence,shrunken log2 fold change
1,RRIRIRPPRLPRPRPRPGTNPRP,-0.314
2,RRIRARPPRLPRPRPRPYMAPRP,-0.702
3,RRIRCRPPRLPRPRPRPFHWPRP,-0.195
4,RRIRPRPPRLPRPRPRPGSAPRP,0.18
5,RRIRFRPPRLPRPRPRPSVEPRP,-0.18
6,RRIRHRPPRLPRPRPRPGVQPRP,0.00489
7,RRIRRRPPRLPRPRPRPDPVPRP,0.0811
8,RRIRYRPPRLPRPRPRPPLSPRP,-0.283
9,RRIRIRPPRLPRPRPRPLFHPRP,-0.779
10,RRIRDRPPRLPRPRPRPILHPRP,-0.0215
11,RRIRTRPPRLPRPRPRPWFCPRP,-0.392
12,RRIRKRPPRLPRPRPRPINQPRP,-0.166
13,RRIRHRPPRLPRPRPRPHHDPRP,-0.166
14,RRIRVRPPRLPRPRPRPMSYPRP,-0.0627
15,RRIRQRPPRLPRPRPRPDIYPRP,-0.284
16,RRIRFRPPRLPRPRPRPADYPRP,-0.207
17,RRIRFRPPRLPRPRPRPCCVPRP,-0.189
18,RRIRCRPPRLPRPRPRPPTQPRP,0.515
19,RRIRIRPPRLPRPRPRPSEIPRP,0.0838
20,RRIRKRPPRLPRPRPRPDNAPRP,0.05
21,RRIRFRPPRLPRPRPRPLTYPRP,-0.573
22,RRIRSRPPRLPRPRPRPTVPPRP,0.0372
23,RRIRVRPPRLPRPRPRPYKEPRP,0.0231
24,RRIRCRPPRLPRPRPRPQYCPRP,-0.135
25,RRIRCRPPRLPRPRPRPISIPRP,-0.443

row,Sequence,shrunken log2 fold change
1,RRIRNRPPRLPRPRPRPLENPRP,-0.0075
2,RRIRRRPPRLPRPRPRPSCEPRP,0.13
3,RRIRGRPPRLPRPRPRPWCYPRP,0.0576
4,RRIRCRPPRLPRPRPRPIHFPRP,-0.368
5,RRIRERPPRLPRPRPRPKGIPRP,-0.000842
6,RRIRIRPPRLPRPRPRPFYTPRP,-0.324
7,RRIRTRPPRLPRPRPRPDYGPRP,0.00355
8,RRIRERPPRLPRPRPRPILKPRP,-0.401
9,RRIRIRPPRLPRPRPRPWHVPRP,-0.0239
10,RRIRIRPPRLPRPRPRPMEEPRP,-0.00798
11,RRIRFRPPRLPRPRPRPFSTPRP,-0.0736
12,RRIRGRPPRLPRPRPRPKAQPRP,1.27
13,RRIRIRPPRLPRPRPRPFIGPRP,-0.227
14,RRIRIRPPRLPRPRPRPYNMPRP,-1.39
15,RRIRPRPPRLPRPRPRPRMMPRP,0.323
16,RRIRDRPPRLPRPRPRPYIMPRP,-0.42
17,RRIRNRPPRLPRPRPRPYWPPRP,-0.199
18,RRIRPRPPRLPRPRPRPQILPRP,-0.172
19,RRIRSRPPRLPRPRPRPPTCPRP,0.155
20,RRIRIRPPRLPRPRPRPQKMPRP,-0.269
21,RRIRMRPPRLPRPRPRPNSTPRP,0.0221
22,RRIRCRPPRLPRPRPRPCPIPRP,-0.52
23,RRIRVRPPRLPRPRPRPSELPRP,-0.157
24,RRIRTRPPRLPRPRPRPHLKPRP,-0.207
25,RRIRNRPPRLPRPRPRPWYFPRP,-0.222

row,Sequence,shrunken log2 fold change
1,RRIRNRPPRLPRPRPRPWFLPRP,-0.0768
2,RRIRHRPPRLPRPRPRPRHEPRP,0.099
3,RRIRCRPPRLPRPRPRPITTPRP,-0.197
4,RRIRDRPPRLPRPRPRPEMIPRP,0.0934
5,RRIRVRPPRLPRPRPRPFNLPRP,-0.103
6,RRIRHRPPRLPRPRPRPMKKPRP,-0.0202
7,RRIRDRPPRLPRPRPRPKFWPRP,0.442
8,RRIRGRPPRLPRPRPRPLTYPRP,0.279
9,RRIRGRPPRLPRPRPRPTAHPRP,1.12
10,RRIRIRPPRLPRPRPRPRAYPRP,-0.315
11,RRIRMRPPRLPRPRPRPQAIPRP,-0.00149
12,RRIRRRPPRLPRPRPRPNQMPRP,0.388
13,RRIRLRPPRLPRPRPRPVQAPRP,-0.0131
14,RRIRGRPPRLPRPRPRPPCQPRP,0.283
15,RRIRMRPPRLPRPRPRPWIWPRP,0.106
16,RRIRIRPPRLPRPRPRPIFRPRP,-0.013
17,RRIRTRPPRLPRPRPRPHGRPRP,0.0169
18,RRIRERPPRLPRPRPRPNVEPRP,0.0609
19,RRIRPRPPRLPRPRPRPHWVPRP,-0.137
20,RRIRIRPPRLPRPRPRPDTSPRP,-0.283
21,RRIRLRPPRLPRPRPRPYVHPRP,-0.783
22,RRIRRRPPRLPRPRPRPKCGPRP,0.0229
23,RRIRFRPPRLPRPRPRPYMYPRP,-0.635
24,RRIRGRPPRLPRPRPRPSMSPRP,0.453
25,RRIRWRPPRLPRPRPRPRIYPRP,0.068

row,Sequence,shrunken log2 fold change
1,RRIRYRPPRLPRPRPRPLWAPRP,-0.25
2,RRIRVRPPRLPRPRPRPFNKPRP,0.791
3,RRIRRRPPRLPRPRPRPTSYPRP,-0.0452
4,RRIRTRPPRLPRPRPRPATWPRP,0.164
5,RRIRDRPPRLPRPRPRPYLIPRP,-0.387
6,RRIRRRPPRLPRPRPRPSTKPRP,0.068
7,RRIRCRPPRLPRPRPRPLKKPRP,-0.26
8,RRIRQRPPRLPRPRPRPSYKPRP,-0.54
9,RRIRDRPPRLPRPRPRPAADPRP,0.701
10,RRIRKRPPRLPRPRPRPTQTPRP,1.25
11,RRIRERPPRLPRPRPRPFRFPRP,-0.185
12,RRIRRRPPRLPRPRPRPFLQPRP,0.117
13,RRIRRRPPRLPRPRPRPSEWPRP,-0.15
14,RRIRYRPPRLPRPRPRPVCMPRP,-0.314
15,RRIRMRPPRLPRPRPRPLKWPRP,0.196
16,RRIRARPPRLPRPRPRPIFVPRP,0.233
17,RRIRKRPPRLPRPRPRPDGSPRP,0.132
18,RRIRERPPRLPRPRPRPDTCPRP,-0.0337
19,RRIRNRPPRLPRPRPRPFGGPRP,-0.133
20,RRIRYRPPRLPRPRPRPHQRPRP,-0.0288
21,RRIRSRPPRLPRPRPRPGVYPRP,-0.0749
22,RRIRARPPRLPRPRPRPLVVPRP,0.194
23,RRIRLRPPRLPRPRPRPNKTPRP,0.0829
24,RRIRCRPPRLPRPRPRPCKKPRP,-0.205
25,RRIRMRPPRLPRPRPRPLAIPRP,0.173

row,Sequence,shrunken log2 fold change
1,RRIRDRPPRLPRPRPRPILYPRP,-0.131
2,RRIRCRPPRLPRPRPRPFRKPRP,-0.0377
3,RRIRIRPPRLPRPRPRPAHYPRP,-0.153
4,RRIRQRPPRLPRPRPRPYYRPRP,-0.124
5,RRIRCRPPRLPRPRPRPILIPRP,1.28
6,RRIRIRPPRLPRPRPRPEDSPRP,-0.0125
7,RRIRKRPPRLPRPRPRPYQNPRP,-0.198
8,RRIRLRPPRLPRPRPRPQEWPRP,0.0562
9,RRIRSRPPRLPRPRPRPFKIPRP,-0.466
10,RRIRHRPPRLPRPRPRPSQTPRP,0.067
11,RRIRSRPPRLPRPRPRPWKHPRP,-0.0883
12,RRIRVRPPRLPRPRPRPRKMPRP,0.299
13,RRIRPRPPRLPRPRPRPKPWPRP,0.227
14,RRIRLRPPRLPRPRPRPYFEPRP,-0.453
15,RRIRGRPPRLPRPRPRPDRTPRP,-0.0561
16,RRIRGRPPRLPRPRPRPIHMPRP,-0.0548
17,RRIRERPPRLPRPRPRPVFCPRP,-0.0447
18,RRIRMRPPRLPRPRPRPARNPRP,-0.0385
19,RRIRMRPPRLPRPRPRPATHPRP,-0.0207
20,RRIRDRPPRLPRPRPRPPYSPRP,-0.805
21,RRIRWRPPRLPRPRPRPIGIPRP,-0.0434
22,RRIRKRPPRLPRPRPRPWEAPRP,0.0326
23,RRIRKRPPRLPRPRPRPDMLPRP,-0.0389
24,RRIRIRPPRLPRPRPRPIWVPRP,-0.145
25,RRIRIRPPRLPRPRPRPIYGPRP,-0.000842
